From patent US20170052184A1
Residue numbers refer to the chain shown, from its start. Where two headings read alike, the source gives them in different places.

B1: HCV 208A-126 (antibody, V domains shown)
VH: QLQQSGPVLVKPGASVMISCKTSGYTFTENAMHWVKQSHGKSLEWIGGVNPNNGDTIFNQKFKGKATLTVDKSSNTAFTELRSLPSEESTVYYCVRRGLDFFDYWGQGTSVTVSS
VL: DIVLTQSPASLAVSLGQRATISCRASQSVSTSRYSYMHWYQQKPGQPPKLLIKYASNLESGVPARFSGSGSGTDFTLNIHPVAEEDTAAYYCQHSWEFPFTFGSGTKLEIKR
B2: HCV 208A-692 (antibody, V domains shown)
VH: QGQMQQSGAELAKPGASVKLSCKTSGFTFSSSYISWLKQKPGQSLEWIAWIFAGTGNTNYNQKFTDKAQLTVDTSSSTAYMQLSSLTTEDSAIYYCAISGTGFTYWGQGTLVTVSA
VL: EVLMTQSPLSLPVSLGDQASISCRSSQSLEHSNGNTYLEWFLQRPGQPPKLLIYKVSSRFSGVPDRFSGSGSGTDFTLKISRVEAEDLGVYYCFQGSHVPFTFGSGTKLAIKR
B3: HCV 208B-826 (antibody, V domains shown)
VH: DVQLVESGGGLVQAGGSRKLSCAASGFPFSSFGMHWVRQAPEKGLEWVASISSRTSKIYYADNLKGRFTISRDNPKNTLFLQMTSLGSEDTAMYYCVRSVFGNSYWFFDVWGAGTTVTVSS
VL: DIVLTQSPATLSVTPGDRVSLSCRASQRIYNYLHWYQQKSHESPRLLTKYASQSISGIPSRFSGSGSGTDFILTINSVETEDFGMYFCQQSNSWPLTFGAGTKLELRR
B4: HCV 208A-210 (antibody, V domains shown)
VH: QVQLQQSGPELVKPGASMRISCKASGYTFTSYYVHWIKQRPGQGLEWIGCIYPGDVNTDYNEKFKGKATLTADKSSSTAYMQVSTLTSEDSAIYFCVLYYYGSFAYWGQGTLVTVSA
VL: EIVLTQSPAITAASLGQNVTITCRASSSVSYMHWYRQKSGTSPQLWIYEISRRASGVPARFRASGSGTSYSLTISSMEAEDAAIYYCQQWNYPLTFGAGTKLEVKR
B5: HCV 208B-353 (antibody, V domains shown)
VH: EVQLVESGGDLVKPGGSLKLSCAASGFTFNHYGMSWVRQPPDKRLEWVATISSGGGYTYYPDSVKGRFTISRDNAKDTLSLQMSSLRSGDTAVYYCASLYGSLFAYWGQGTLVTVSA
VL: DIVMTQSQKFMSTTVGDRVRVTCKASQNVGTAVAWYQQKPGQSPKLLIYSASNRYTGVPDRFTGSGSGTDFTLTITNMQSEDLADYFCQQYSTYPLTFGSGAKLEIKR
B6: HCV 208B-911 (antibody, V domains shown)
VH: QVHLQQPGAELVRPGVSVKLSCKASGYTFTTYSINWMKQRPGQGLEWIGNIYPSTSHTNYNQKFRDKATMTVDKSSSTAYMQLSSPTSEDSAVYYCTINAYSMDYWGQGTSVTVSS
VL: QIVLTQSPEIMSASPGEKVTITCSASSSVSFMYWFQQKPGTSPKLWIYITSNLASGVPTRFSGSGSGTSYSLTISRMEAEDAATYYCQQRSSFPYTFGGGTKLEMKR
B7: HCV 208B-793 (antibody, V domains shown)
VH: EVKLVESGGGLVQPGGSLKLSCAASGFTFSSYAMSWVRQTPERRLEWVTYISNGGGSTYYSDTVKGRFTFSRDNAKNTLYLQMSSLKSEDTAMYYCARHGLGRTGFASWGQGTLVTVSA
VL: DIVMTQSHKFMSTSVGDRVSITCKASQDVGTAVAWYQQKPGQSPKLLIYWASTRHTGVPDRFTGSGSGTDFTLTISNVQSEDLADYFCQQYSNYLTFGAGTKLEVKR
B8: HCV 208B-178 (antibody, V domains shown)
VH: DVKLVESGGGLVKLGGSLKLSCAASGFTFSSYYMSWVRQTPEKRLELVAAINSNGGSTYYPDTVKGRFTISRDNAKNTLYLQMSSLKSEDTALYYCARHGGLGRRDWYFDVWGAGTTVTVSS
VL: DIVLTQSPASLAVSLGQRATISCRASESVDNYGISFMHWYQQKPGQPPKLLIYRASNLESGIPARFSGSGSRTDFTLTINPVETDDVATYYCQQSNKDPFTFGSGAKLEIKR
B9: HCV 208A-442 (antibody, V domains shown)
VH: DVQLQESGPGLVNPSQSLSLTCSVTGYSITSGYYWIWIRQFPGNKLEWMGYIKYDGGNNYSPSLKNRISIARDTSKNQFFLKLNSVTIEDTATYYCTRGSDSFDYWGQGTTLTVSS
VL: DIVLTQSPASLAVSLGQRAIISCKASQSVSFAGTNLMHWYQQKPGQQPKLLIYRASNLETGVPTRFSGSGSRTDFTLNIHPVEEDDAATYYCQQSREYYTFGGGTKLEIKR
B10: HCV 208B-327 (antibody, V domains shown)
VH: EVQLVESGGGLVKPGGSLKLSCAASGFTFSDSYMYWVRQTPDQRLEWVATISDGGSYTFYPDSVKGRFTISRDNAQNNLYLQMSSLKSEDTAMYYCASPHAGYFGWFAYWGRGTLVTVSA
VL: DIVMTQAAFSNPVTPGTSVSISCRSSKSLLHSNGITYLYWYLQKPGQSPQLLIYQMSKIASGVPDRFRSSGSGTDFTLRISRVEAADVGVYYCAQNLELPWTFGGGTKLEIKR
B11: HCV 208B-517 (antibody, V domains shown)
VH: QVQLKQSGPGLVQPSQSLSITCTVSGFSLITHGVHWVRQSPGKGLEWLGVIWSGGSTDYNAAFISRLSISKDTSKSQVFLKMSSLQADDTAIYYCARNGGATAFDYWGQGTTLTVSS
VL: DIVMTQSPATLSVTPGDRVSLSCRASQSISDYLHWYQQKSHESPRLLIKYASQSISGIPSRFRGSGSGSHFTLSINSVEPEDVGVYYCQNGHSFPWTFGGGTKLEIKR
B12: HCV 208B-822 (antibody, V domains shown)
VH: QVQLKQSGPGLVQPSQSLSITCTVSGFSLITYGVHWVRQSPGKGLEWLGVIWGGGSTGYNAAFVSRLNITKDNSKSQVFFKMNSLQPDDTAIYYCARNGGATVFDYWGQGTTLTVSS
VL: B11 VL with S28T, R63S
B13: HCV 208B-408 (antibody, V domains shown)
VH: EVKLVESGGGLVQPGGSLRLSCASSGFTFTDYYMSWVRQPPGKALEWLGFIRNKAYGYTTEFSASVNGRFTISRDDSQSVPYLQMNTLRAEDSATYYCARVLYYDYGGFAYWGQGTLVTVST
VL: DIQMTQSPASLSASVGETVTITCRASGNIHTYLAWYQQKQGKSPQLLVYNANTLADGVPSRFSGSGSGTQFSLKINSLQPDDFGSYYCQHFWSAPWTFGGGTQLEIKR
B14: HCV 208B-515 (antibody, V domains shown)
VH: QVQLQQPGAELVKPGASLKLSCRASGYTFTSYWIHWVKQRPGQGLEWIGEIDPSDSYTNYNQKFKGKATLTVDKSSRAAYMQLSSLTSEDSAVYYCARHYYGVFDSWGQGTKLTVSS
VL: QIVFTQYPAIMSASLGERVTMTCTASSSVTSSYLHWFQQKPGSSPKLWIYSTSNPGSGVPARFSGRGSGTSYSLSISSMEAEDAATYYCLQFHRSPWTFGGGTKLEIRR

How the values were obtained:
[1] = biological target: bovine serum albumin (BSA) (bovine) (UniProt P02769); assay: EIA, BSA background
Chain of bovine serum albumin (BSA) (bovine) (P02769 25-607 limits assumed): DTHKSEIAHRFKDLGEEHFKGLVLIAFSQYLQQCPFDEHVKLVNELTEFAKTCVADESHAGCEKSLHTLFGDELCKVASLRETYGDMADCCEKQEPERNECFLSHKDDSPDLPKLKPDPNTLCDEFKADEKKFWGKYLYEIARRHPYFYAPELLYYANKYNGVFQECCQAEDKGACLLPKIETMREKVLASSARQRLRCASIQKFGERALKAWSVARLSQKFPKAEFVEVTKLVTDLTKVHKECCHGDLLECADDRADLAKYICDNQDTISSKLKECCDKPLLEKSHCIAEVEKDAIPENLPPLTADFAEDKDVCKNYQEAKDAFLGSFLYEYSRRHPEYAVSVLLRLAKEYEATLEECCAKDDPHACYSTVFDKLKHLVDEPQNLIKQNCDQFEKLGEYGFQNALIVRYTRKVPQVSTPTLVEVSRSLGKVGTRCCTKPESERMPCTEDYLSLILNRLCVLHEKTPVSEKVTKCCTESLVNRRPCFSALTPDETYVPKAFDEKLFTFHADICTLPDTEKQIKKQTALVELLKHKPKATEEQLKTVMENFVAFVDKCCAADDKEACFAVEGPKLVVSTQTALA

[2] = biological target: bovine serum albumin (bovine) (UniProt P02769); assay: EIA, BSA control
Chain of bovine serum albumin (bovine) (P02769 25-607 limits assumed): as above

[3] = biological target: bovine serum albumin (BSA) (bovine) (UniProt P02769); assay: EIA, BSA background; remark: listed apart in the source
[4] = biological target: T1, HCV bt-141-161 (Peptide 2, HCVc 141-161) (Hepatitis C virus (numbering per HCV-1)); assay: EIA, captured mAb + biotin peptide
T1 sequence (peptide, biotin (carboxy-terminal per [p-0227]; N-terminal per [p-0050])): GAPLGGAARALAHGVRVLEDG

Row | Binder | OD (A492) [1] [OD] | Reactivity (OD 492 nm) [2] [OD units] | OD (A492) [3] [OD] | Reactivity (OD 492 nm) [4] [OD units]
1 | B1 | 0.07 | 0.1 | 0.24 | 
2 | B2 | 0.09 | 0.06 | 0.06 | 0.38
3 | B3 | 0.41 | 0.07 | 0.08 | 
4 | B4 | 0.08 | 0.06 | 0.06 | 
5 | B5 | 0.1 | 0.07 | 0.06 | 
6 | B6 | 0.17 | 0.1 | 1.17 | 
7 | B7 | 0.2 | 0.13 | 0.42 | 
8 | B8 | 0.08 | 0.07 | 0.07 | 
9 | B9 | 0.14 | 0.06 | 0.06 | 
10 | B10 | 0.09 | 0.05 | 0.08 | 
11 | B11 | 0.12 | 0.11 | 0.07 | 
12 | B12 | 0.11 | 0.05 | 0.06 | 
13 | B13 | 0.1 | 0.06 | 0.08 | 0.2
14 | B14 | 0.08 | 0.06 | 0.07 | 
